Our source for the binding result and EC50 values is patent publication US20240301031A1 (JIANGSU HENGRUI PHARMACEUTICALS, published 2024).

For assay [1], the target named is T1, IL-12/23 p40 (Sino biological, 10052-H08H) (UniProt P29460 23-328).
T1 construct: Bought protein
T1 sequence (looked up): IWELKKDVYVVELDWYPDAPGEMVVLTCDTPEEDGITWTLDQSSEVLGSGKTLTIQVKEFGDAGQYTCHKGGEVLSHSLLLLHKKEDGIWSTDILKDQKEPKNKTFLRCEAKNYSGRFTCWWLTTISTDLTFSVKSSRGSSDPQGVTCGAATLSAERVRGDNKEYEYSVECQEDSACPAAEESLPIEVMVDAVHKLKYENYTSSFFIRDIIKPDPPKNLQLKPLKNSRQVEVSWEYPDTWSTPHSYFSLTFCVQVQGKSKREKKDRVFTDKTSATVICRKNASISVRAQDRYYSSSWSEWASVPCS
The experiment in a line: ELISA, IL-12/23 p40 coated.

Assay [2] concerns the target T2, human BAFF (10056-HNCH, Sino biological) (human, UniProt Q9Y275 134-285).
T2 construct: Bought protein
The experiment in a line: ELISA, BAFF coated, sample titrated. Here is the method:
The binding activity of the antibodies or fusion proteins for BAFF, APRIL, and IL-12/23 p40 was assayed by the ELISA method (coating an antigen protein). The specific procedures were as follows:
A BAFF (Sino biological, 10056-HNCH), APRIL (R&D Systems, 5860-AP-010/CF), or IL-12/23 p40 (Sino biological, 10052-H08H) protein was diluted to 1 μg/mL with a PBS (BasalMedia, B320) buffer at pH 7.4, and added to a 96-well microplate (Corning, 3590) at 100 μL/well. The plate was incubated at 4° C. overnight. After the liquid was discarded, 300 μL of 5% skim milk (BD, 232100) diluted with PBS was added to each well for blocking, and the plate was incubated at 37° C. for 2 h. After the blocking was completed, the blocking solution was discarded, and the plate was washed 3 times with a PBST buffer (PBS at pH 7.4 containing 0.1% tween-20). 100 μL of test antibody or fusion protein solution diluted in a gradient was added to each well, and the plate was incubated at 37° C. for 1 h. After the incubation was completed, the plate was washed 3 times with PBST. […] The plate was washed 3 times with PBST. […] The plate was read for absorbance values at 450 nm on a microplate reader, the binding curves of the antibodies to an antigen were fitted with software, and the EC₅₀ values were calculated.

B1: RCT-18 (Telitacicept) (Fc fusion)
chain: SRVDQEERFPQGLWTGVAMRSCPEEQYWDPLLGTCMSCKTICNHQSQRTCAAFCRSLSCRKEQGKFYDHLLRDCISCASICGQHPKQCAYFCENKLRSPVNLPPELDKTHTCPPCPAPEAEGAPSVFLFPPKPKDTLMISRTPEVTCVVVDVSHEDPEVKFNWYVDGVEVHNAKTKPREEQYNSTYRVVSVLTVLHQDWLNGKEYKCKVSNKALPSSIEKTISKAKGQPREPQVYTLPPSRDELTKNQVSLTCLVKGFYPSDIAVEWESNGQPENNYKTTPPVLDSDGSFFLYSKLTVDKSRWQQGNVFSCSVMHEALHNHYTQKSLSLSPGK
notes: Positive control; TACI part is positions 13-118 of the extracellular region of human TACI, the rest is Fc
For B1, in assay [1], the binding result is “no binding”. For the same molecule, the EC50 in assay [2] worked out at 6.71 nM.
